# Source: patent publication US20260008852A1 (CRYSTAL BIOSCIENCE, published 2026)
# T1: B7-H3 on CHO-K1 cells stably transfected with B7-H3 (GenScript #M00536) (UniProt Q5ZPR3 29-534, limits assumed)
# T1 sequence (looked up): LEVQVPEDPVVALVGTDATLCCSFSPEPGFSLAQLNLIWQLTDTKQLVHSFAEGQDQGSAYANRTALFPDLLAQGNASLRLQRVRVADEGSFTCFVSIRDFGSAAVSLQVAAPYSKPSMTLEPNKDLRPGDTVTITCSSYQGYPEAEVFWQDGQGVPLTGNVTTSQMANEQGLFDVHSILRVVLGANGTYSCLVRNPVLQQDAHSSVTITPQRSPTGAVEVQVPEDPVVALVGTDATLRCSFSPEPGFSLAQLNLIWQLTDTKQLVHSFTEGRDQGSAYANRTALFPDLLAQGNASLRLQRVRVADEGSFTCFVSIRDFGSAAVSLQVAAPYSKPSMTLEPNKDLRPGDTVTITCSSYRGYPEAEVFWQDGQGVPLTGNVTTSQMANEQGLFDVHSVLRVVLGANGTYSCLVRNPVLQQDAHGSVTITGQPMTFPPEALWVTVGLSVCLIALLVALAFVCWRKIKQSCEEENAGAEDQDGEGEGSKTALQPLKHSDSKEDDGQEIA
# Target: T1, B7-H3 on CHO-K1 cells stably …
# Test: cell-based or functional assay
Binder,"ADCC reporter assay, EC50 Value, CHOK1/B7-H3 cells [µg/mL]","ADCC reporter assay, Max RLU, CHOK1/B7-H3 cells [RLU]"
"40511p1.1.A1 IgG (antibody, V domains shown) VH: DVQLVESGGGVVRPGESLRLSCAASGFTFSNYAMNWVRQAPGEGLEWVSRINYKGYNITYYADSVKGRFTISRDNSKNTLYLQMNSLRAEDTAVYYCAKSGSNSNNFFDYWGLGTLVTVSS VL: EIVLTQSPGTLSVSPGERATLSCRASQSVNSKLAWYQQRPGQAPRLLIYDASSRATGIPDRFSGSGSGTDFTLTISRLEPEDFAVYYCQQYKNWPPLTFGGGTKVEIK",0.0124,820000
"40511p1.1.H5 IgG (antibody, V domains shown) VH: DVQLVESGGGVVRPGESLRLSCAASGFTFSNYAMNWVRQAPGEGLEWVSRINYKGYNITYYADSVKGRFTISRDNSKNTLYLQMNSLRAEDTAVYYCAKSGSNSNNFFDYWGLGTLVTVSS VL: EIVLTQSPGTLSLSPGERATLSCRASQSIRSDLAWYQQKPGQAPRLLIYGAASRATGIPARFSGSGSGTEFTLTISSLQSGDFAVYYCQQYNSWPPLTFGGGTKVEIK",0.0164,762000
"40511p1.2.A4 IgG (antibody, V domains shown) VH: DVQLVESGGGVVRPGESLRLSCAASGFTFSSYAESWVRQAPGEGLEWVSIISGSGGNTFYADSVKGRFTISRDNSKNTLYLQMNSLRAEDTAVYYCARFAYGFFDYWGLGTLVTVSS VL: EIVLTQSPGTLSVSPGERATLSCRASQTVGSKLAWYQQKPGQAPRLLIYDASTRATDIPDRFSGSGSGTDFTLTISSLQSEDFAVYYCQQYRNWPPLTFGGGTKVEIK",0.0318,548000
"40511p1.2.G10 IgG (antibody, V domains shown) VH: DVQLVESGGGVVRPGESLRLSCAASGFTFSNYAMNWVRQAPGEGLEWVSRINYKGYNITYYADSVKGRFTISRDNSKNTLYLQMNSLRAEDTAVYYCAKSGSNSNNFFDYWGLGTLVTVSS VL: EIVLTQSPGTLSLSPGERATLSCRASQTVGSKLAWYQQKPGQAPRLLIYGASTRATDIPDRFSGSGSGTEFTLTISSLQSEDFAVYYCQQYINWPPLSFGGGTKVEIK",~0.0103,893000
"40511p1.2.A12 IgG (antibody, V domains shown) VH: DVQLVESGGGVVRPGESLRLSCAASGFTFSSYAESWVRQAPGEGLEWVSIISGSGGNTFYADSVKGRFTISRDNSKNTLYLQMNSLRAEDTAVYYCARFAYGFFDYWGLGTLVTVSS VL: EIVLTQSPGTLSVSPGERATLSCRASQTVGSKLAWYQQKPGQPPSLLIYDASTRATGIPDRFSGSGSGTDFTLTISSLQSEDFAVYYCQQYRNWPPLTFGGGTKVEIK",0.0352,598000
"40579p1.C2 IgG (antibody, V domains shown) VH: EVQLLESGGDLVQPGGSLRLSCAASGFNFSSYWMSWVRQAPGKGLEWVSGISISYGGNAYYADSVKGRFTVSRDNSKNTLYLQMNSLRAEDTAVYYCGRDRSPYQYRSMDVWGQGTTVTVSS VL: EIVLTQSPATLSVSPGERATFSCRASQTIGNKLAWYQQKPGQAPRLLIFSASTRATDIPDRFSGSGSGTDFTLTISSLQSEDFAVYYCQQYNNWPPLTFGGGTKVEIK",0.0116,843000
"40579p1.D8 IgG (antibody, V domains shown) VH: EVQLLESGGGLVQPGGSLRLSCAASGFTFSDYYMSWVRQAPGKGLEWVSSISISYGGTTYYADSVKGRFTISRDNSKNTLYLQMNSLRAEDTAVYYCARDRSPYQCRSMDVWGQGTTVTVSS VL: EIVLTQSPGTLSLSPGERATLSCRASQSIRSDLAWYQQKPGQAPRLLIYNTVTRATGVPDRFSGSGSGTEFTLTISSLQSEDFAVYYCQQYNSWPPLTFGGGTKVEIK",0.075,728000
"40579p1.F7 IgG (antibody, V domains shown) VH: EVQLLESGGGLVQPGGSLRLSCAASGFTFSDYYMSWVRQAPGKGLEWVSGISISYGGNAYYADSVKGRFTVSRDNSKNTLYLQMNSLRAEDTAVYYCGRDRSPYQYRSMDVWGQGTTVTVSS VL: EIVLTQSPGTLSLSPGERATLTCRASQSVGDFLAWYQQKPGQAPRLLIYGASTRAAGIPARFRGSGSGTDFTLTISSLQSEDFAVYYCQQYKNWPPLTFGGGTKVEIK",0.0124,641000
"40579p1.D1 IgG (antibody, V domains shown) VH: EVQLLESGGGLVQPGGSLRLSCAASGFTFSDYYMSWVRQAPGKGLEWVSSISISYGGTTYYADSVKGRFTISRDNSKNTLYLQMNSLRAEDTAVYYCARDRSPYQCRSMDVWGQGTTVTVSS VL: EIVLTQSPGSLSLSPGERATLSCRASQSVNSDLAWYQQKPGQAPRLLIYAASSRATGIPARFSGSGSGTEFTLTISSLQSEDFAVYYCQQYNNWPPLTFGGGTKVEIK",0.274,744000
"40579p1.H7 IgG (antibody, V domains shown) VH: EVQLLESGGDLVQPGGSLRLSCAASGFNFSSYWMSWVRQAPGKGLEWVSGISISYGGNAYYADSVKGRFTVSRDNSKNTLYLQMNSLRAEDTAVYYCGRDRSPYQYRSMDVWGQGTTVTVSS VL: EIVLTQSPGTLSLSPGERATLSCRASQSIRSDLAWYQQKPGQAPRLLIYGASSRATGIPARFSGSGSGTEFTLTISSLQSEDFAVYYCQQYNNWPPLTFGGGTKVEIK",0.0126,833000
"40579p1.G1 IgG (antibody, V domains shown) VH: EVQLLESGGGLVQPGGSLRLSCAASGFNFSSYWMSWVRQAPGKGLEWVSGISISYGGNAYYADSVKGRFTVSRDNSKNTLYLQMNSLRAEDTAVYYCGRDRSPYQYRSMDVWGQGTTVTVSS VL: EIVLTQSPGTLSLSPGERATLSCRASQSIRSDLAWYQQKPGQAPRLLIYGASSRATGIPARFSGSGSGTEFTLTISSLQSEDFAVYYCQQYNNWPPLTFGGGTKVEIK",0.0115,806000
"40633p1.1.A7 IgG (antibody, V domains shown) VH: EVQLLESGGGLVQPGGSLRLSCAASGFTVSYYGMSWVRQAPGKGLEWVSAIKQDGSEKYYADSVKGRFTISRDNSKNTLYLQMNSLRAEDTAVYYCARHWNDYSNAMNVWGQGTTVTVSS VL: QSVLTQPPSASGTPGQRVTISCSGSTSNIGRESVYWYQQLPGTAPKLLIYTIDQRPSGVPDRFSGSKSGTSASLAISGLQSEDEAVYYCASWDASLNGWVFGGGTKLTVL",~0.0125,634000

# Next, values leading:
"ADCC reporter assay, EC50 Value, CHOK1/B7-H3 cells [µg/mL]","ADCC reporter assay, Max RLU, CHOK1/B7-H3 cells [RLU]",Binder
0.0214,519000,"40633p1.1.F2 IgG (antibody, V domains shown) VH: EVQLLESGGGLVQPGGSLRLSCVASGLTFNGFAMTWVRQAPGKGLEWVSGISWNSGSIYYADSVKGRFTISRDNSKNTVYLQMSSLRAEDTAIYYCAKNWNDYYNSMDVWGQGTTVTVSS VL: QSVLTQPPSASGTPGQRVTISCSGSRSNIGTKYVYWYQQFPGTAPKLLIYTTDRRPSGVPDRFSGSKSGTSASLAISGLQSEDEADYYCSAWDDRLNAWVFGGGTKLTVL"
0.0119,656000,"40633p1.1.D11 IgG (antibody, V domains shown) VH: EVQLLESGGGLVQPGGSLRLSCAASGFTFRSYAMSWVRQAPGKGLEWVAYIGSSGGTTYYADSVKGRFTISRDNSKNTLYLQMNSLRAEDTAVYYCVKESYYYMDVWGQGTTVTVSS VL: QSVLTQPPSASGTPGQRVTISCSATISNIDINRVSWYQQLPGTAPKLLIFNSQRPSGVPDRFSGSKSGTSASLAISGLQSEDEADYYCATWDDSLNSWVFGGGTKLTVL"
0.0173,719000,"40633p1.1.C11 IgG (antibody, V domains shown) VH: EVQLLESGGGLVQPGGSLRLSCAASGFTFSSYWMSWVRQAPGKGLEWVAGINRNGGTTYYADSVKGRFTISRDNSKNTLYLQMNSLRAEDTAVYYCARWNDYDIMDVWGQGTTVTVSS VL: not shown"
0.0194,676000,"40633p1.1.E4 IgG (antibody, V domains shown) VH: EVQLLESGGGLVQPGGSLRLSCAASGFTFSSYWMSWVRQAPGKGLEWVSGISSSGSATYYADSVKGRFTISRDNSKNTLYLQMNSLRAEDTAVYYCARWNDYDIMDVWGQGTTVTVSS VL: not shown"
0.135,625000,"40633p1.1.E3 IgG (antibody, V domains shown) VH: EVQLLESGGGLVQPGGSLRLSCAASGFTVSYYGMSWVRQAPGKGLEWVSAIKQDGSEKYYADSVKGRFTISRDNSKNTLYLQMNSLRAEDTAVYYCARHWNDYSNAMNVWGQGTTVTVSS VL: not shown"
0.0227,680000,"40633p1.1.B3 IgG (antibody, V domains shown) VH: EVQLLESGGGLVQPGGSLRLSCAASGFTVSYYGMSWVRQAPGKGLEWVSAIKQDGSEKYYADSVKGRFTISRDNSKNTLYLQMNSLRAEDTAVYYCARHWNDYSNAMNVWGQGTTVTVSS VL: QSVLTQPPSASGTPGQRVTISCSGSTSNIGRESVYWYQQLPGTAPKLLIYTIDQRPSGVPDRFSGSKSGTSASLAISGLQSEDEADYYCGTWDDSLNAWVFGGGTKLTVL"
0.0344,725000,"40633p1.1.G11 IgG (antibody, V domains shown) VH: EVQLLESGGGLVQPGGSLRLSCAASGFTVSYYGMSWVRQAPGKGLEWVSVIKQDGSEEYYADSVKGRFTISRDNSKNTLYLQMNSPRAEDTAVYYCARHWNDYSNGMNVWGQGTTVTVSS VL: QSVLTQPPSASGTPGQRVTISCSGSTSNVGDRYVYWYQQLPGTAPKLLIYLDDQRPSGVPDRFSGSKSGTSASLAISGLQSEDEADYYCASWDASLNGWVFGGGTKLTVL"
